Experimental data published in patent US20220033470A1.
pKd: −log10 of the molar value.

Experiments:
[1] = target: human insulin receptor (human) (UniProt P06213); assay: SPR (Biacore), soluble sortilin 50-500 nM over immobilized human insulin receptor
[2] = target: murine insulin receptor (murine) (UniProt P15208); assay: SPR (Biacore), soluble sortilin 50-500 nM over immobilized murine insulin receptor
[3] = target: murine insulin receptor (murine) (UniProt P15208); assay: Surface plasmon resonance (Biacore); murine insulin receptor (mIR) immobilized (0.0607 pmol/mm^2), sortilin injected at 50-500 nM, CaHBS buffer
[4] = target: human insulin receptor (human) (UniProt P06213); assay: Surface plasmon resonance (Biacore); human insulin receptor immobilized (0.0609 pmol/mm^2), sortilin injected at 50-500 nM, CaHBS buffer

pKd [1]: 7.40
pKd [2]: 7.40
pKd [3]: 7.38
pKd [4]: 7.34
Substance: Soluble sortilin (from UniProt Q99523 78-755) (receptor)
